Measured values from the supplement of paper PMC7125110.
± gives the standard error. This sample holds only a part of the variants without activity.

B1: glmS ribozyme (parent)
chain: AUAAAAGCGCCAGAACUACAGAAAUGUAGUUGACGAGGAGGAGGUUUAUCGAAUUUUCGGCGGAUGCCUCCAAA

Variants of: B1
Test: self-cleavage kobs at 640 uM GlcN6P; higher = faster cleavage; RNA array
Settings: with glucosamine-6-phosphate
In short: (§1)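 Tiles bearing barcoded ribozyme variants, transcribed in situ by E. coli RNA polymerase on sequenced MiSeq chips, were imaged over ~14 h at 37 °C using a hybridised Cy3 probe. Glucosamine-6-phosphate was supplied at 40 μM to 10 mM in HEPES/KCl/Mg(OAc)2 buffer. kobs came from one- or two-exponential decay fits to normalised per-tile medians, and weighted Michaelis–Menten fits then provided kcat and KM.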

Variant	self-cleavage kobs at 640 uM GlcN6P [s⁻¹]
C8U U47G	< 1e-05
A6U G37C G40A	< 1e-05
A6U G9C A52U C67A C70U	< 1e-05
C8G C10A G38U A52G	< 1e-05
G9U U55C G62U	< 1e-05
G7U C61U C68G	0.00114 ± 0.00049
G9C G37C C70G	< 1e-05
G9U C16A G59U G60U	< 1e-05
G9C U45A C68A	< 1e-05
C8U G66C C71G	< 1e-05
C8A A33U U55G	< 1e-05
G7U A53U A64G	< 1e-05
C8A A36G A42U A53G	< 1e-05
G7A G43U U49G G63C A64U	< 1e-05
C8U A14U U57C G59U	< 1e-05
G7A A15U U56G C58A	< 1e-05
A6U C8U A15U G32C C34A C61G	< 1e-05

Variant	self-cleavage kobs at 640 uM GlcN6P [s⁻¹]
G7C C8U	< 1e-05
A6U A36C G51C	< 1e-05
G9A A14C A36G G37C A39U	< 1e-05
C8U U45A A48U C50U	< 1e-05
G7U C16A G37U U45G	< 1e-05
G9U U46G C58G	< 1e-05
G7A C16G A48U G60C C70A	< 1e-05
G9C C34U U49C U65G	< 1e-05
G9A G37A U56G	< 1e-05
C8A G32U U45G A48G C71A	< 1e-05
C8U G35A G60C U65G	< 1e-05
C8U U54C U55G	< 1e-05
G9C G29A G32A	< 1e-05
G7A A12C A42C U49C	< 1e-05
C8G A33U U46A U69G	< 1e-05
G9A G51U A52C	< 1e-05

Variants of: B1
Test: self-cleavage kobs at 10000 uM GlcN6P; higher = faster cleavage; RNA array
Settings: with glucosamine-6-phosphate
In short: as §1

Variant	self-cleavage kobs at 10000 uM GlcN6P [s⁻¹]
C8U U47G	< 1e-05
C8A A33U U55G	< 1e-05

Variants of: B1
Test: self-cleavage kobs at 2500 uM GlcN6P; higher = faster cleavage; RNA array
Settings: with glucosamine-6-phosphate
In short: as §1

Variant	self-cleavage kobs at 2500 uM GlcN6P [s⁻¹]
A6U G37C G40A	< 1e-05
C8G C10A G38U A52G	< 1e-05
G9C G37C C70G	< 1e-05
G9U C16A G59U G60U	< 1e-05
G9C U45A C68A	< 1e-05
G7U A53U A64G	< 1e-05
C8A A36G A42U A53G	< 1e-05
G7A G43U U49G G63C A64U	< 1e-05
A6U A36C G51C	< 1e-05
C8U U45A A48U C50U	< 1e-05
G9U U46G C58G	< 1e-05
G7A C16G A48U G60C C70A	< 1e-05
G9C G29A G32A	< 1e-05
C8G A33U U46A U69G	< 1e-05
G9A G51U A52C	< 1e-05
